Data taken from patent US20210054097A1 (Novo Nordisk, published 2021).
Ends that are not written are not given here.

What was measured:
[1] = molecular target: T1, FX activation peptide 12-mer SVAQATSSSGEA (human); experiment: peptide ELISA
T1 peptide: SVAQATSSSGEA-biotin
Protocol: (§1) The peptides were C-terminally conjugated to biotin and 50 μL of 1 μg/mL peptide solution was used for immobilization in discrete wells of the microtiter plate which was pre-coated with 1 μg/mL streptavidin. Each well was washed with washing buffer (10 mM Tris, 150 mM NaCl, 2.5 mM CaCl₂, 0.05% Tween 20, pH 8.60) followed by addition of 50 μL of 2 μg/mL FLAG-tagged anti-FX Nanobody® or IgG antibody to be tested. After 1 hour non-bound Nanobody®/antibody was washed off using washing buffer.
(§2) Bound anti-FX activation peptide ligand was detected by first binding a HRP-labelled secondary antibody (for FLAG-tagged Nanobodies: Anti-FLAG mAb M2-Peroxidase (HRP) (Sigma Aldrich, US), for antibody: Fcγ Fragment Specific Peroxidase AffiniPure F(ab′)₂ Fragment Goat Anti-Human IgG (Jackson ImmunoResearch Laboratories, Inc., US), or Peroxidase AffiniPure Goat Anti-Mouse IgG (Jackson ImmunoResearch Laboratories, Inc., US)) for 1 hour, and then adding 100 μL TMB-1 ELISA substrate (Kem-En-Tec Diagnostics, Denmark).

[2] = molecular target: T2, FX activation peptide 12-mer AQATSSSGEAPD (human); experiment: peptide ELISA
T2 peptide: AQATSSSGEAPD-biotin
Protocol: as §1, §2

[3] = molecular target: T3, FX activation peptide 12-mer QATSSSGEAPDS (human); experiment: peptide ELISA
T3 peptide: QATSSSGEAPDS-biotin
Protocol: as §1, §2

[4] = molecular target: T4, FX activation peptide 12-mer ATSSSGEAPDSI (human); experiment: peptide ELISA
T4 peptide: ATSSSGEAPDSI-biotin
Protocol: as §1, §2

[5] = molecular target: T5, FX activation peptide 12-mer TSSSGEAPDSIT (human); experiment: peptide ELISA
T5 peptide: TSSSGEAPDSIT-biotin
Protocol: as §1, §2

[6] = molecular target: T6, FX activation peptide 12-mer SSGEAPDSITWK (human); experiment: peptide ELISA
T6 peptide: SSGEAPDSITWK-biotin
Protocol: as §1, §2

[7] = molecular target: T7, FX activation peptide 12-mer SGEAPDSITWKP (human); experiment: peptide ELISA
T7 peptide: SGEAPDSITWKP-biotin
Protocol: as §1, §2

[8] = molecular target: T8, FX activation peptide 12-mer EAPDSITWKPYD (human); experiment: peptide ELISA
T8 peptide: EAPDSITWKPYD-biotin
Protocol: as §1, §2

[9] = molecular target: T9, FX activation peptide 12-mer APDSITWKPYDA (human); experiment: peptide ELISA
T9 peptide: APDSITWKPYDA-biotin
Protocol: as §1, §2

[10] = molecular target: T10, FX activation peptide 12-mer SITWKPYDAADL (human); experiment: peptide ELISA
T10 peptide: SITWKPYDAADL-biotin
Protocol: as §1, §2

[11] = molecular target: T11, FX activation peptide 12-mer ITWKPYDAADLD (human); experiment: peptide ELISA
T11 peptide: ITWKPYDAADLD-biotin
Protocol: as §1, §2

[12] = molecular target: T12, FX activation peptide 12-mer TWKPYDAADLDP (human); experiment: peptide ELISA
T12 peptide: TWKPYDAADLDP-biotin
Protocol: as §1, §2

[13] = molecular target: T13, FX activation peptide 12-mer WKPYDAADLDPT (human); experiment: peptide ELISA
T13 peptide: WKPYDAADLDPT-biotin
Protocol: as §1, §2

[14] = molecular target: T14, FX activation peptide 12-mer KPYDAADLDPTE (human); experiment: peptide ELISA
T14 peptide: KPYDAADLDPTE-biotin
Protocol: as §1, §2

[15] = molecular target: T15, FX activation peptide 12-mer PYDAADLDPTEN (human); experiment: peptide ELISA
T15 peptide: PYDAADLDPTEN-biotin
Protocol: as §1, §2

[16] = molecular target: T16, FX activation peptide 12-mer YDAADLDPTENP (human); experiment: peptide ELISA
T16 peptide: YDAADLDPTENP-biotin
Protocol: as §1, §2

[17] = molecular target: T17, FX activation peptide 12-mer DAADLDPTENPF (human); experiment: peptide ELISA
T17 peptide: DAADLDPTENPF-biotin
Protocol: as §1, §2

[18] = molecular target: T18, FX activation peptide 12-mer ADLDPTENPFDL (human); experiment: peptide ELISA
T18 peptide: ADLDPTENPFDL-biotin
Protocol: as §1, §2

[19] = molecular target: T19, FX activation peptide 12-mer DLDPTENPFDLL (human); experiment: peptide ELISA
T19 peptide: DLDPTENPFDLL-biotin
Protocol: as §1, §2

[20] = molecular target: T20, FX activation peptide 12-mer TENPFDLLDFNQ (human); experiment: peptide ELISA
T20 peptide: TENPFDLLDFNQ-biotin
Protocol: as §1, §2

[21] = molecular target: T21, FX activation peptide 12-mer ENPFDLLDFNQT (human); experiment: peptide ELISA
T21 peptide: ENPFDLLDFNQT-biotin
Protocol: as §1, §2

[22] = molecular target: T22, FX activation peptide 12-mer NPFDLLDFNQTQ (human); experiment: peptide ELISA
T22 peptide: NPFDLLDFNQTQ-biotin
Protocol: as §1, §2

[23] = molecular target: T23, FX activation peptide 12-mer DLLDFNQTQPER (human); experiment: peptide ELISA
T23 peptide: DLLDFNQTQPER-biotin
Protocol: as §1, §2

[24] = molecular target: T24, FX activation peptide 12-mer LLDFNQTQPERG (human); experiment: peptide ELISA
T24 peptide: LLDFNQTQPERG-biotin
Protocol: as §1, §2

[25] = molecular target: T25, FX activation peptide 12-mer LDFNQTQPERGD (human); experiment: peptide ELISA
T25 peptide: LDFNQTQPERGD-biotin
Protocol: as §1, §2

[26] = molecular target: T26, FX activation peptide 12-mer DFNQTQPERGDN (human); experiment: peptide ELISA
T26 peptide: DFNQTQPERGDN-biotin
Protocol: as §1, §2

[27] = molecular target: T27, FX activation peptide 12-mer FNQTQPERGDNN (human); experiment: peptide ELISA
T27 peptide: FNQTQPERGDNN-biotin
Protocol: as §1, §2

[28] = molecular target: T28, FX activation peptide 12-mer QTQPERGDNNLT (human); experiment: peptide ELISA
T28 peptide: QTQPERGDNNLT-biotin
Protocol: as §1, §2

[29] = molecular target: T29, FX activation peptide 12-mer TQPERGDNNLTR (human); experiment: peptide ELISA
T29 peptide: TQPERGDNNLTR-biotin
Protocol: as §1, §2

[30] = molecular target: human plasma-derived Factor X zymogen (human, UniProt P00742 41-179; P00742 183-488); experiment: cell-based or functional assay
[31] = molecular target: T30, FX activation peptide 12-mer LDPTENPFDLLD (human); experiment: peptide ELISA
T30 peptide: LDPTENPFDLLD-biotin
Protocol: as §1, §2

[32] = molecular target: T31, FX activation peptide 12-mer FDLLDFNQTQPE (human); experiment: peptide ELISA
T31 peptide: FDLLDFNQTQPE-biotin
Protocol: as §1, §2

Sequence of human plasma-derived Factor X zymogen (P00742 41-179, chain 1 of 2): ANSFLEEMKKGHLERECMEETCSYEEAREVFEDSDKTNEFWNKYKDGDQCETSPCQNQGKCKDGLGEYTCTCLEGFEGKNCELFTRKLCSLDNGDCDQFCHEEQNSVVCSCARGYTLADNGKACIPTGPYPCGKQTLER
Sequence of human plasma-derived Factor X zymogen (P00742 183-488, chain 2 of 2): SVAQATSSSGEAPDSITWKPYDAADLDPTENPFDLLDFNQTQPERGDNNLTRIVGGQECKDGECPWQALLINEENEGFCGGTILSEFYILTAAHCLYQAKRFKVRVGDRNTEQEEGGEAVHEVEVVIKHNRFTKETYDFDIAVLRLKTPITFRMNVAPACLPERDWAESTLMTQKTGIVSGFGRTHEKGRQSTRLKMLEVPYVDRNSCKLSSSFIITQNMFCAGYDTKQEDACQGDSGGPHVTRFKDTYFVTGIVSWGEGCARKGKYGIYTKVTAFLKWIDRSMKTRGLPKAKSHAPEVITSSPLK

B1: Nb 729A04 (VHH)
VHH: EVQLVESGGGVVQPGGSLRLSCAASGFTFSDYAMSWVRQAPGKGLEWVSGITSGGGRTYYADSVKGRFTISRDNSKNTLYLQMNSLRPEDTALYYCAAVRTLGLRGSYDYWGQGTLVTVSS
notes: monovalent Nanobody; not shown: C-terminal FLAG3 and HIS6 tag
- ELISA signal relative to background [1]: 0.92
- ELISA signal relative to background [2]: 1.08
- ELISA signal relative to background [3]: 1.08
- ELISA signal relative to background [4]: 1.24
- ELISA signal relative to background [5]: 1.12
- ELISA signal relative to background [6]: 0.96
- ELISA signal relative to background [7]: 0.98
- ELISA signal relative to background [8]: 1.01
- ELISA signal relative to background [9]: 1.04
- ELISA signal relative to background [10]: 1.13
- ELISA signal relative to background [11]: 1.28
- ELISA signal relative to background [12]: 0.99
- ELISA signal relative to background [13]: 1.2
- ELISA signal relative to background [14]: 1.33
- ELISA signal relative to background [15]: 1.06
- ELISA signal relative to background [16]: 1.06
- ELISA signal relative to background [17]: 1.1
- ELISA signal relative to background [18]: 0.98
- ELISA signal relative to background [19]: 1.06
- ELISA signal relative to background [20]: 9.12
- ELISA signal relative to background [21]: 17.8
- ELISA signal relative to background [22]: 8.27
- ELISA signal relative to background [23]: 1.12
- ELISA signal relative to background [24]: 1.1
- ELISA signal relative to background [25]: 0.98
- ELISA signal relative to background [26]: 0.97
- ELISA signal relative to background [27]: 1.05
- ELISA signal relative to background [28]: 1.11
- ELISA signal relative to background [29]: 1.09
- Increase in FX activation (fold) [30]: 4.1 fold

B2: Nb 701C06 (VHH)
VHH: EVQLVESGGGVVQPGGSLRLSCAASGRTFSTYAMGWFRQAPGKEREFVAAISRRGGRTYYADSVKGRFTISRDNSKNTVYLQMNSLRPEDTALYYCAADATARDGLLDYWGQGTLVTVSS
notes: as for B1
- ELISA signal relative to background [1]: 0.92
- ELISA signal relative to background [2]: 0.91
- ELISA signal relative to background [3]: 0.94
- ELISA signal relative to background [4]: 0.91
- ELISA signal relative to background [5]: 0.87
- ELISA signal relative to background [6]: 0.89
- ELISA signal relative to background [7]: 0.88
- ELISA signal relative to background [8]: 0.89
- ELISA signal relative to background [9]: 0.96
- ELISA signal relative to background [10]: 0.94
- ELISA signal relative to background [11]: 1.03
- ELISA signal relative to background [12]: 1
- ELISA signal relative to background [13]: 0.99
- ELISA signal relative to background [14]: 0.9
- ELISA signal relative to background [15]: 0.82
- ELISA signal relative to background [16]: 0.85
- ELISA signal relative to background [17]: 0.85
- ELISA signal relative to background [18]: 0.87
- ELISA signal relative to background [19]: 0.88
- ELISA signal relative to background [31]: 0.94
- ELISA signal relative to background [23]: 1.13
- ELISA signal relative to background [24]: 1.03
- ELISA signal relative to background [25]: 0.93
- ELISA signal relative to background [26]: 0.87
- ELISA signal relative to background [27]: 0.88
- ELISA signal relative to background [28]: 0.93
- ELISA signal relative to background [29]: 0.97
- Increase in FX activation (fold) [30]: 26 fold

B3: Nb 701D07 (VHH)
VHH: EVQLVESGGGVVQPGGSLRLSCAASGGTLSRYAMGWFRQAPGKEREFVAAITRRGSRTYYADSVKGRFTISRDNSKNTVYLQMNSLRPEDTALYYCAADLAPGDYALDYWGQGTLVTVSS
notes: as for B1
- ELISA signal relative to background [1]: 0.76
- ELISA signal relative to background [2]: 0.89
- ELISA signal relative to background [3]: 0.81
- ELISA signal relative to background [4]: 0.86
- ELISA signal relative to background [5]: 0.75
- ELISA signal relative to background [6]: 0.74
- ELISA signal relative to background [7]: 0.78
- ELISA signal relative to background [8]: 0.76
- ELISA signal relative to background [9]: 0.9
- ELISA signal relative to background [10]: 1.04
- ELISA signal relative to background [11]: 0.89
- ELISA signal relative to background [12]: 0.91
- ELISA signal relative to background [13]: 0.85
- ELISA signal relative to background [14]: 0.73
- ELISA signal relative to background [15]: 0.73
- ELISA signal relative to background [16]: 0.75
- ELISA signal relative to background [17]: 0.7
- ELISA signal relative to background [18]: 0.77
- ELISA signal relative to background [19]: 0.74
- ELISA signal relative to background [31]: 0.8
- ELISA signal relative to background [32]: 0.99
- ELISA signal relative to background [23]: 0.81
- ELISA signal relative to background [24]: 0.8
- ELISA signal relative to background [25]: 0.79
- ELISA signal relative to background [26]: 0.75
- ELISA signal relative to background [27]: 0.82
- ELISA signal relative to background [28]: 0.79
- ELISA signal relative to background [29]: 0.88
- Increase in FX activation (fold) [30]: 17.2 fold
